US9580731B2, “Methods of producing 7-carbon chemicals via c1 carbon chain elongation associated with coenzyme B synthesis” (INVISTA North America S.á r.l., priority 2012, dated 2017)

Columns and labels:
Format in all cases: biochemical
[1] = Carboxylate reductase activity assay, pimelate semialdehyde to heptanedial (NADPH consumption); conditions: 2 mM pimelate semialdehyde, enhanced by gene product of sfp, room temperature, 20 min, against empty vector control, FIG. 13
Protocol: The N-terminal His-tagged carboxylate reductase of SEQ ID NO 7 (see Example 4 and FIG. 7) was assayed using pimelate semialdehyde as substrate. The enzyme activity assay was performed in triplicate in a buffer composed of a final concentration of 50 mM HEPES buffer (pH=7.5), 2 mM pimelate semialdehyde, 10 mM MgCl2, 1 mM ATP and 1 mM NADPH. The enzyme activity assay reaction was initiated by adding purified carboxylate reductase and phosphopantetheine transferase or the empty vector control to the assay buffer containing the pimelate semialdehyde and then incubated at room temperature for 20 min. The consumption of NADPH was monitored by absorbance at 340 nm.

[2] = Carboxylate reductase activity assay, N7-acetyl-7-aminoheptanoate to N7-acetyl-7-aminoheptanal (NADPH consumption); conditions: 2 mM N7-acetyl-7-aminoheptanoate, enhanced by gene product of sfp, room temperature, 20 min, against empty vector control, FIG. 12
Protocol: The activity of each of the N-terminal His-tagged carboxylate reductases of SEQ ID NOs: 3, 6, and 7 (see Examples 4, and FIG. 7) for converting N7-acetyl-7-aminoheptanoate to N7-acetyl-7-aminoheptanal was assayed in triplicate in a buffer composed of a final concentration of 50 mM HEPES buffer (pH=7.5), 2 mM N7-acetyl-7-aminoheptanoate, 10 mM MgCl2, 1 mM ATP, and 1 mM NADPH. The assays were initiated by adding purified carboxylate reductase and phosphopantetheine transferase or the empty vector control to the assay buffer containing the N7-acetyl-7-aminoheptanoate then incubated at room temperature for 20 min. The consumption of NADPH was monitored by absorbance at 340 nm.

[3] = Carboxylate reductase activity assay, pimelate to pimelate semialdehyde (NADPH consumption); conditions: 2 mM pimelate, enhanced by gene product of sfp, room temperature, 20 min, against empty vector control, FIG. 10
Protocol: A sequence encoding a HIS-tag was added to the genes from Segniliparus rugosus and Segniliparus rotundus that encode the carboxylate reductases of SEQ ID NOs: 4 and 7, respectively (see FIG. 7), such that N-terminal HIS tagged carboxylate reductases could be produced. Each of the modified genes was cloned into a pET Duet expression vector along with a sfp gene encoding a HIS-tagged phosphopantetheine transferase from Bacillus subtilis, both under the T7 promoter. Each expression vector was transformed into a BL21[DE3] E. coli host and the resulting recombinant E. coli strains were cultivated at 37° C. in a 250 mL shake flask culture containing 50 mL LB media and antibiotic selection pressure, with shaking at 230 rpm. Each culture was induced overnight at 37° C. using an auto-induction media.
The pellet from each induced shake flask culture was harvested via centrifugation. Each pellet was resuspended and lysed via sonication, and the cell debris was separated from the supernatant via centrifugation. […]
Enzyme activity assays (i.e., from pimelate to pimelate semialdehyde) were performed in triplicate in a buffer composed of a final concentration of 50 mM HEPES buffer (pH=7.5), 2 mM pimelate, 10 mM MgCl2, 1 mM ATP and 1 mM NADPH. […] The consumption of NADPH was monitored by absorbance at 340 nm.

B1: SEQ ID NO 7: Segniliparus rotundus carboxylate reductase, Genbank Accession No. ADG98140.1 (protein, listed as Segniliparus rotundus)
chain: MTQSHTQGPQASAAHSRLARRAAELLATDPQAAATLPDPEVVRQATRPGLRLAERVDAILSGYADRPALGQRSFQTVKDPITGRSSVELLPTFDTITYRELRERATAIASDLAHHPQAPAKPGDFLASIGFISVDYVAIDIAGVFAGLTAVPLQTGATLATLTAITAETAPTLFAASIEHLPTAVDAVLATPSVRRLLVFDYRAGSDEDREAVEAAKRKIADAGSSVLVDVLDEVIARGKSAPKAPLPPATDAGDDSLSLLIYTSGSTGTPKGAMYPERNVAHFWGGVWAAAFDEDAAPPVPAINITFLPLSHVASRLSLMPTLARGGLMHFVAKSDLSTLFEDLKLARPTNLFLVPRVVEMLYQHYQSELDRRGVQDGTREAEAVKDDLRTGLLGGRILTAGFGSAPLSAELAGFIESLLQIHLVDGYGSTEAGPVWRDGYLVKPPVTDYKLIDVPELGYFSTDSPHPRGELAIKTQTILPGYYKRPETTAEVFDEDGFYLTGDVVAQIGPEQFAYVDRRKNVLKLSQGEFVTLAKLEAAYSSSPLVRQLFVYGSSERSYLLAVIVPTPDALKKFGVGEAAKAALGESLQKIARDEGLQSYEVPRDFIIETDPFTVENGLLSDARKSLRPKLKEHYGERLEAMYKELADGQANELRDIRRGVQQRPTLETVRRAAAAMLGASAAEIKPDAHFTDLGGDSLSALTFSNFLHDLFEVDVPVGVIVSAANTLGSVAEHIDAQLAGGRARPTFATVHGKGSTTIKASDLTLDKFIDEQTLEAAKHLPKPADPPRTVLLTGANGWLGRFLALEWLERLAPAGGKLITIVRGKDAAQAKARLDAAYESGDPKLAGHYQDLAATTLEVLAGDFSEPRLGLDEATWNRLADEVDFISHPGALVNHVLPYNQLFGPNVAGVAEIIKLAITTRIKPVTYLSTVAVAAGVEPSALDEDGDIRTVSAERSVDEGYANGYGNSKWGGEVLLREAHDRTGLPVRVFRSDMILAHQKYTGQVNATDQFTRLVQSLLATGLAPKSFYELDAQGNRQRAHYDGIPVDFTAESITTLGGDGLEGYRSYNVFNPHRDGVGLDEFVDWLIEAGHPITRIDDYDQWLSRFETSLRGLPESKRQASVLPLLHAFARPGPAVDGSPFRNTVFRTDVQKAKIGAEHDIPHLGKALVLKYADDIKQLGLL
[1]
  carboxylate reductase activity for converting pimelate semialdehyde to heptanedial (NADPH consumption, absorbance at 340 nm): accepted pimelate semialdehyde as substrate
[2]
  carboxylate reductase activity for converting N7-acetyl-7-aminoheptanoate to N7-acetyl-7-aminoheptanal (NADPH consumption, absorbance at 340 nm): accepted N7-acetyl-7-aminoheptanoate as substrate
[3]
  carboxylate reductase activity for converting pimelate to pimelate semialdehyde (NADPH consumption, absorbance at 340 nm): accepted pimelate as substrate
